Measurements taken from publication PMC7142073, “Acclimation of bacterial cell state for high-throughput enzyme engineering using a DmpR-dependent transcriptional activation system” (Scientific Reports, 2020).

Substrate: N[C@@H](Cc1ccc(O)cc1)C(=O)O
Assay: purified protein
Assay type: biochemical, Symbiobacterium sp. SC-1
Conditions: 50 mM potassium phosphate, 50 µM PLP; pH 8.0; 60.0 °C

B1: thermostable TPL (TTPL) (Symbiobacterium sp. SC-1) (protein)
chain: MQRPWAEPYKIKAVEPIRMTTREYREQAIREAGYNTFLLRSEDVYIDLLTDSGTNAMSDRQWGALMMGDEAYAGARSFFRLEEAVREIYGFKYVVPTHQGRGAEHLISRILIKPGDYIPGNMYFTTTRTHQELQGGTFVDVIIDEAHDPQANHPFKGNVDIAKFEALIDRVGADKIPYINVALTVNMAGGQPVSMANLREVRKVCDRHGIRMWSDATRAVENAYFIKEREEGYQDKPVREILKEMMSYFDGCTMSGKKDCLVNIGGFLAMNEEWILQKAREQVVIFEGMPTYGGLAGRDMEAIAQGIYEMVDDDYIAHRIHQVRYLGEQLLEAGIPIVQPIGGHAVFLDARAFLPHIPQDQFPAQALAAALYVDSGVRAMERGIVSAGRNPQTGEHNYPKLELVRLTIPRRVYTDRHMDVVAYSVKHLWKERDTIRGLRMVYEPPTLRFFTARFEPIS
notes: His-tagged, pSHCE plasmid, expressed in E. coli DH5alpha with pGESS; cloning primer starts … (M-Q-R-P)
For B1, the Km was 270 ± 10 µM, the kcat was 0.15 ± 0.01 s⁻¹ and the kcat/Km was 550 ± 10 M⁻¹ s⁻¹.
